Measured values reported in patent US10920254B2, “Methods and materials for producing 5 and 7-carbon monomers” (INVISTA North America S.á.r.l., priority 2015, dated 2021).

B1: SEQ ID NO: 4: Segniliparus rugosus carboxylate reductase, N-terminal HIS tagged (protein, listed as Segniliparus rugosus)
chain: MGDGEERAKRFFQRIGELSATDPQFAAAAPDPAVVEAVSDPSLSFTRYLDTLMRGYAERPALAHRVGAGYETISYGELWARVGAIAAAWQADGLAPGDFVATVGFTSPDYVAVDLAAARSGLVSVPLQAGASLAQLVGILEETEPKVLAASASSLEGAVACALAAPSVQRLVVFDLRGPDASESAADERRGALADAEEQLARAGRAVVVETLADLAARGEALPEAPLFEPAEGEDPLALLIYTSGSTGAPKGAMYSQRLVSQLWGRTPVVPGMPNISLHYMPLSHSYGRAVLAGALSAGGTAHFTANSDLSTLFEDIALARPTFLALVPRVCEMLFQESQRGQDVAELRERVLGGRLLVAVCGSAPLSPEMRAFMEEVLGFPLLDGYGSTEALGVMRNGIIQRPPVIDYKLVDVPELGYRTTDKPYPRGELCIRSTSLISGYYKRPEITAEVFDAQGYYKTGDVMAEIAPDHLVYVDRSKNVLKLSQGEFVAVAKLEAAYGTSPYVKQIFVYGNSERSFLLAVVVPNAEVLGARDQEEAKPLIAASLQKIAKEAGLQSYEVPRDFLIETEPFTTQNGLLSEVGKLLRPKLKARYGEALEARYDEIAHGQADELRALRDGAGQRPVVETVVRAAVAISGSEGAEVGPEANFADLGGDSLSALSLANLLHDVFEVEVPVRIIIGPTASLAGIAKHIEAERAGASAPTAASVHGAGATRIRASELTLEKFLPEDLLAAAKGLPAADQVRTVLLTGANGWLGRFLALEQLERLARSGQDGGKLICLVRGKDAAAARRRIEETLGTDPALAARFAELAEGRLEVVPGDVGEPKFGLDDAAWDRLAEEVDVIVHPAALVNHVLPYHQLFGPNVVGTAEIIRLAITAKRKPVTYLSTVAVAAGVEPSSFEEDGDIRAVVPERPLGDGYANGYGNSKWAGEVLLREAHELVGLPVAVFRSDMILAHTRYTGQLNVPDQFTRLVLSLLATGIAPKSFYQQGAAGERQRAHYDGIPVDFTAEAITTLGAEPSWFDGGAGFRSFDVFNPHHDGVGLDEFVDWLIEAGHPISRIDDHKEWFARFETAVRGLPEAQRQHSLLPLLRAYSFPHPPVDGSVYPTGKFQGAVKAAQVGSDHDVPHLGKALIVKYADDLKALGLL
modifications: N-terminal His tag
notes: Segniliparus rugosus carboxylate reductase, N-terminal HIS tagged
B2: SEQ ID NO: 6: Segniliparus rotundus carboxylate reductase, N-terminal HIS tagged (protein, listed as Segniliparus rotundus)
chain: MTQSHTQGPQASAAHSRLARRAAELLATDPQAAATLPDPEVVRQATRPGLRLAERVDAILSGYADRPALGQRSFQTVKDPITGRSSVELLPTFDTITYRELRERATAIASDLAHHPQAPAKPGDFLASIGFISVDYVAIDIAGVFAGLTAVPLQTGATLATLTAITAETAPTLFAASIEHLPTAVDAVLATPSVRRLLVFDYRAGSDEDREAVEAAKRKIADAGSSVLVDVLDEVIARGKSAPKAPLPPATDAGDDSLSLLIYTSGSTGTPKGAMYPERNVAHFWGGVWAAAFDEDAAPPVPAINITFLPLSHVASRLSLMPTLARGGLMHFVAKSDLSTLFEDLKLARPTNLFLVPRVVEMLYQHYQSELDRRGVQDGTREAEAVKDDLRTGLLGGRILTAGFGSAPLSAELAGFIESLLQIHLVDGYGSTEAGPVWRDGYLVKPPVTDYKLIDVPELGYFSTDSPHPRGELAIKTQTILPGYYKRPETTAEVFDEDGFYLTGDVVAQIGPEQFAYVDRRKNVLKLSQGEFVTLAKLEAAYSSSPLVRQLFVYGSSERSYLLAVIVPTPDALKKFGVGEAAKAALGESLQKIARDEGLQSYEVPRDFIIETDPFTVENGLLSDARKSLRPKLKEHYGERLEAMYKELADGQANELRDIRRGVQQRPTLETVRRAAAAMLGASAAEIKPDAHFTDLGGDSLSALTFSNFLHDLFEVDVPVGVIVSAANTLGSVAEHIDAQLAGGRARPTFATVHGKGSTTIKASDLTLDKFIDEQTLEAAKHLPKPADPPRTVLLTGANGWLGRFLALEWLERLAPAGGKLITIVRGKDAAQAKARLDAAYESGDPKLAGHYQDLAATTLEVLAGDFSEPRLGLDEATWNRLADEVDFISHPGALVNHVLPYNQLFGPNVAGVAEIIKLAITTRIKPVTYLSTVAVAAGVEPSALDEDGDIRTVSAERSVDEGYANGYGNSKWGGEVLLREAHDRTGLPVRVFRSDMILAHQKYTGQVNATDQFTRLVQSLLATGLAPKSFYELDAQGNRQRAHYDGIPVDFTAESITTLGGDGLEGYRSYNVFNPHRDGVGLDEFVDWLIEAGHPITRIDDYDQWLSRFETSLRGLPESKRQASVLPLLHAFARPGPAVDGSPFRNTVFRTDVQKAKIGAEHDIPHLGKALVLKYADDIKQLGLL
modifications: N-terminal His tag
notes: Segniliparus rotundus carboxylate reductase, N-terminal HIS tagged

Columns and labels:
Format in all cases: biochemical
[1] = carboxylate reductase enzyme activity assay (pimelate to pimelate semialdehyde), NADPH consumption at 340 nm; conditions: purified enzyme enhanced by gene product of sfp; 2 mM pimelate, 1 mM ATP, 1 mM NADPH, pH 7.5, room temperature, 20 min; FIG. 8
Protocol: A nucleotide sequence encoding a HIS-tag was added to the nucleic acid sequences from Segniliparus rugosus and Segniliparus rotundus that encode the carboxylate reductases of SEQ ID NOs: 4 (EFV11917.1) and 6 (ADG98140.1), respectively (see FIG. 6C and FIG. 6E), such that N-terminal HIS tagged carboxylate reductases could be produced. Each of the modified genes was cloned into a pET Duet expression vector along with a sfp gene encoding a HIS-tagged phosphopantetheine transferase from Bacillus subtilis, both under the T7 promoter. Each expression vector was transformed into a BL21[DE3] E. coli host and the resulting recombinant E. coli strains were cultivated at 37° C. in a 250 mL shake flask culture containing 50 mL LB media and antibiotic selection pressure, with shaking at 230 rpm. Each culture was induced overnight at 37° C. using an auto-induction media.
The pellet from each induced shake flask culture was harvested via centrifugation. Each pellet was resuspended and lysed via sonication, and the cell debris was separated from the supernatant via centrifugation. […]
Enzyme activity assays (i.e., from pimelate to pimelate semialdehyde) were performed in triplicate in a buffer composed of a final concentration of 50 mM HEPES buffer (pH=7.5), 2 mM pimelate, 10 mM MgCl2, 1 mM ATP, and 1 mM NADPH. […] The consumption of NADPH was monitored by absorbance at 340 nm. […]

[2] = carboxylate reductase enzyme activity assay (pimelate semialdehyde to heptanedial), NADPH consumption at 340 nm; conditions: purified enzyme enhanced by gene product of sfp; 2 mM pimelate semialdehyde, 1 mM ATP, 1 mM NADPH, pH 7.5, room temperature, 20 min; FIG. 11
Protocol: The N-terminal His-tagged carboxylate reductase of SEQ ID NO: 6 (see Example 3 and FIG. 6E) was assayed using pimelate semialdehyde as substrate. The enzyme activity assay was performed in triplicate in a buffer composed of a final concentration of 50 mM HEPES buffer (pH=7.5), 2 mM pimelate semialdehyde, 10 mM MgCl2, 1 mM ATP, and 1 mM NADPH. The enzyme activity assay reaction was initiated by adding purified carboxylate reductase and phosphopantetheine transferase or the empty vector control to the assay buffer containing the pimelate semialdehyde and then incubated at room temperature for 20 min. The consumption of NADPH was monitored by absorbance at 340 nm.

[3] = carboxylate reductase enzyme activity assay (N7-acetyl-7-aminoheptanoate to N7-acetyl-7-aminoheptanal), NADPH consumption at 340 nm; conditions: purified enzyme enhanced by gene product of sfp; 2 mM N7-acetyl-7-aminoheptanoate, 1 mM ATP, 1 mM NADPH, pH 7.5, room temperature, 20 min; FIG. 10
Protocol: The activity of each of the N-terminal His-tagged carboxylate reductases of SEQ ID NOs: 3, 5, and 6 (see Examples 2 and 3, and FIG. 6B, FIGS. 6D-6E) for converting N7-acetyl-7-aminoheptanoate to N7-acetyl-7-aminoheptanal was assayed in triplicate in a buffer composed of a final concentration of 50 mM HEPES buffer (pH=7.5), 2 mM N7-acetyl-7-aminoheptanoate, 10 mM MgCl2, 1 mM ATP, and 1 mM NADPH. The assays were initiated by adding purified carboxylate reductase and phosphopantetheine transferase or the empty vector control to the assay buffer containing the N7-acetyl-7-aminoheptanoate then incubated at room temperature for 20 min. The consumption of NADPH was monitored by absorbance at 340 nm.

Molecule | acceptance of pimelate as substrate (NADPH consumption), confirmed against the empty vector control [1] | acceptance of pimelate semialdehyde as substrate (NADPH consumption), confirmed against the empty vector control [2] | acceptance of N7-acetyl-7-aminoheptanoate as substrate (NADPH consumption), confirmed against the empty vector control [3]
B1 | accepted pimelate as substrate | – | –
B2 | accepted pimelate as substrate | accepted pimelate semialdehyde as substrate | accepted N7-acetyl-7-aminoheptanoate as substrate
